Results on 1 substance are retold here after paper PMC4650548.

The target of this assay is NBS1 (UniProt O60934). Put plainly: biotin-peptide streptavidin pull-down from lysate.

“PHRF1 908-924 (from UniProt Q9P1Y6) pSDpTE peptide”: the “binding against the reference” value reads like this: (reference: SDpTE peptide, sites S915) “gained”; (reference: pSDTE peptide, sites T917) “gained”.
